Assay results: patent publication US20180118815A1
pKd: −log10 of the molar value.

Tests used:
[1] = biological target: HIV-1 Env gp140 89.6 (HIV-1 isolate 89.6) (UniProt Q73372); test: SPR, Biacore X100, single-cycle, analytes at 0.1-1,000 nM on gp140 89.6, bivalent binding model
[2] = biological target: HIV-1 Env gp140 89.6 (HIV-1 isolate 89.6) (UniProt Q73372); test: ELISA, gp140 89.6 coated at 2 µg/ml, detection with HRP goat anti-human IgG (Fab-specific)
[3] = biological target: HIV-1 Env gp140 89.6 (HIV-1 isolate 89.6) (UniProt Q73372); test: ELISA on coated gp140 89.6 and SPR (Biacore X100, single-cycle, bivalent model)

| Substance | pKd [1] | koff [1] [s⁻¹] | kon [1] [M⁻¹ s⁻¹] | EC50 (read off the curve) [2] [nM] | fold higher affinity than MD [3] [fold] |
| --- | --- | --- | --- | --- | --- |
| MD (mD1.22-CH1/m36.4-CK heterodimer, wild-type CH1-CK) | 4.80 | 0.077 | 4800 | – | – |
| MD13 (MD mutant with S64E/S66V in CH1 and S69L/T71S in CK) | 7.77 | 0.00081 | 47000 | 1 to 10 | 1000 |
